Measurements: US20190144537A1 (AVEO PHARMACEUTICALS, published 2019)

Key:
[1] = target: T1, recombinant human Notch3 extracellular domain (containing EGF like domains 1-11) Fc fusion protein (human, UniProt Q9UM47 40-467); assay: SPR (Biacore T100), antibody captured by goat anti-human IgG, rhNotch3-Fc injected, 37° C.
T1 construct: Bought from R&D Systems; also called rhNotch3-Fc; Notch3-Fc; not shown: Fc of the bought fusion protein
T1 sequence: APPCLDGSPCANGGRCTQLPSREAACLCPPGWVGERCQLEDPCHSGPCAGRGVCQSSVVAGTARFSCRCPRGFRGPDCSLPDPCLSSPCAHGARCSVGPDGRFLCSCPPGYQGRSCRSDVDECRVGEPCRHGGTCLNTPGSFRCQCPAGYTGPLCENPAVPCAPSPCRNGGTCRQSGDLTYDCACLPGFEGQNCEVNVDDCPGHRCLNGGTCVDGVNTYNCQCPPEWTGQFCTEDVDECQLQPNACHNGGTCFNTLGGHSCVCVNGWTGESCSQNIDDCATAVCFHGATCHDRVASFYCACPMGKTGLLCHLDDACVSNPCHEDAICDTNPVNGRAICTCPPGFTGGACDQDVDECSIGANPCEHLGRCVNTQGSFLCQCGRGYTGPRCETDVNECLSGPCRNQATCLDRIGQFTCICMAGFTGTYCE
Procedure: (§1) Goat anti-human IgG is immobilized on carboxymethylated dextran CM4 sensor chips (GE Healthcare) by amine coupling, according to a standard protocol. Analyses are performed at 25° C. and 37° C. using PBS containing 0.05% surfactant P20 as running buffer. The antibody is captured in individual flow cells at a flow rate of 10 μl/minute. Injection time is varied for each antibody to yield an R max between 30 and 60 resonance units (RU). 250 μg/mL human IgG Fc is injected to block non-specific binding of Fc (from the Notch3 fusion protein) to the capture antibody. Buffer or rhNotch3-Fc diluted in running buffer is injected sequentially over a reference surface (no antibody captured) and the active surface (antibody to be tested) for 240 seconds at 60 μL/minute. The dissociation phase is monitored for up to 1500 seconds. The surface is then regenerated with two 60-second injections of 10 mM Glycine-HCl, pH 2.25, at a flow rate of 30 μL/minute. The rhNotch3-Fc concentration range tested is 100 nM to 3.125 nM (2 fold dilution).
(§2) Kinetic parameters can be determined using the kinetic function of the BIAevaluation software (GE Healthcare) with double reference subtraction. Kinetic parameters for the antibody, kₐ (association rate constant), kd (dissociation rate constant) and KD (equilibrium dissociation constant) are determined.

[2] = target: T2, human Notch3 on the cell surface (human, UniProt Q9UM47 40-2321); assay: cell-based or functional assay
[3] = target: T1, recombinant human Notch3 extracellular …; assay: SPR (Biacore), 28042 captured as ligand, rhNotch3-Fc injected as sample, 25 C, 1:1 binding fit; the same fit is printed under the Notch3 sensorgram as ka 2.720E+5
Procedure: (§3) Rabbit anti-mouse IgGs (GE Healthcare) are immobilized on carboxymethylated dextran CM4 sensor chips (GE Healthcare) by amine coupling, according to a standard protocol. Analyses are performed at 25° C. and 37° C. using PBS containing 0.05% surfactant P20 as running buffer. The antibody is captured in individual flow cells at a flow rate of 10 μL/minute. Injection time is varied for each antibody to yield an R max between 30 and 60 RU. 250 μg/mL human IgG Fc is injected to block non-specific binding of Fc (from the Notch3 fusion protein) to the capture antibody. Buffer or rhNotch1-Fc (R&D Systems, Minneapolis, Minn.; Cat. No. 3647-TK-050), rhNotch2-Fc (R&D Cat. No. 3735-NT-050), and rhNotch3-Fc (R&D Cat. No. 1559-NT-050), diluted in running buffer is injected sequentially over a reference surface (no antibody captured) and the active surface (antibody to be tested) for 240 seconds at 60 μL/minute. The dissociation phase is monitored for up to 1500 seconds. The surface is then regenerated with two 60-second injections of 10 mM Glycine-HCl, pH 2.25, at a flow rate of 30 μL/minute. The rhNotch3-Fc, rhNotch2-Fc, and rhNotch1-Fc concentration range tested are 100 nM to 3.125 nM (2 fold dilution).

[4] = target: T3, human Notch2 on the cell surface (human, UniProt Q04721 26-2471); assay: FACS on FlpIn CHO cells expressing full length human Notch2, anti-human PE secondary antibody
T3 construct: whole, on cells; also called cell surface human Notch2; full length human Notch2
Procedure: (§4) Full length Notch receptor cDNAs cloned into pcDNA5FRT were transfected into FlpIn™ CHO cells and selected with 600 μg/ml hygromycin (Sigma), according to the manufacturer's protocol. Cell surface expression of Notch receptors is confirmed by FACS analysis using anti-Notch1 PE, anti-Notch2 PE or anti-Notch3 PE control antibodies (Biolegend). […] FACS is performed on a BD FACSCanto II cell analyzer (BD Biosciences) and analyzed using FlowJo software.

[5] = target: T1, recombinant human Notch3 extracellular …; assay: SPR (Biacore), 28042 captured as ligand, rhNotch3-Fc injected as sample, 25 C, 1:1 binding fit; the same fit is printed under the Notch3 sensorgram as kd 2.580E-4
Procedure: as §3

[6] = target: T2, human Notch3 on the cell surface; assay: FACS at 4° C. on cells expressing human Notch3, one site binding fit; cell line not stated
Source text: CHO N3 (Flp-In-CHO cells (Invitrogen) stably transfected with human Notch3), HCC2429 cells, and RL-952 cells expressing human Notch3 are washed once with PBS containing calcium chloride and magnesium chloride (Invitrogen) and harvested using cell dissociation buffer (Invitrogen). Cells are washed a second time with PBS and resuspended in FACS buffer (PBS with 0.5% BSA (Sigma-Aldrich)) for a final cell concentration of 250,000 cells per well into a 96-well v-bottom plate. Purified antibodies are diluted in FACS buffer over a concentration range of 100 nM to 0 nM. Cells are then incubated at 4° C. with 100 μL of antibody for one hour, washed with FACS buffer twice, and resuspended in 100 μL of goat-anti mouse PE-conjugated antibody (Jackson Immuno Research). Cells are incubated at 4° C. for 30 minutes in the dark, washed once with FACS buffer, and then analyzed using a Beckman Coulter Cytomics FC 500 instrument. The geometric mean of the florescent intensity then is calculated for each antibody concentration. These values then are entered into Prism software (GraphPad, La Jolla, Calif.) and used to generate a binding curve by plotting geometric mean versus antibody concentration.

[7] = target: T1, recombinant human Notch3 extracellular …; assay: SPR (Biacore T100), antibody captured by goat anti-human IgG, rhNotch3-Fc injected, 25° C.
Procedure: as §1, §2

[8] = target: T4, murine Notch3 on the cell surface (murine, UniProt Q61982 40-2318); assay: FACS on FlpIn CHO cells expressing full length murine Notch3, 5 ug/ml antibody, anti-human PE secondary antibody
T4 construct: whole, on cells; also called mNotch3; full length murine Notch3
Procedure: as §4

[9] = target: T5, rhNotch1-Fc (human, UniProt P46531 19-1735); assay: SPR (Biacore), 28042 captured as ligand, rhNotch1-Fc as sample, 25 C; software 1:1 fit printed under a sensorgram that stays below about 1.5; the drawn table gives '-' for this pair
T5 construct: extracellular domain; Bought from R&D Systems; also called R&D Cat. No. 3647-TK-050; not shown: Fc of the bought fusion protein
Procedure: as §3

[10] = target: T6, human Notch1 on the cell surface (human, UniProt P46531 19-2555); assay: FACS on FlpIn CHO cells expressing full length human Notch1, anti-human PE secondary antibody
T6 construct: whole, on cells; also called cell surface human Notch1; full length human Notch1
Procedure: as §4

[11] = target: T7, cynoNotch3 monomer (cyno); assay: binding to cynoNotch3 monomer at 25° C., protocol similar to that for hNotch3 (method not named)
T7 construct: Only named as 'cynoNotch3 monomer'

[12] = target: T1, recombinant human Notch3 extracellular …; assay: SPR (Biacore), 28042 captured as ligand, rhNotch3-Fc injected as sample, 25 C, 1:1 binding fit
Procedure: as §3

T5 sequence (P46531 19-1735): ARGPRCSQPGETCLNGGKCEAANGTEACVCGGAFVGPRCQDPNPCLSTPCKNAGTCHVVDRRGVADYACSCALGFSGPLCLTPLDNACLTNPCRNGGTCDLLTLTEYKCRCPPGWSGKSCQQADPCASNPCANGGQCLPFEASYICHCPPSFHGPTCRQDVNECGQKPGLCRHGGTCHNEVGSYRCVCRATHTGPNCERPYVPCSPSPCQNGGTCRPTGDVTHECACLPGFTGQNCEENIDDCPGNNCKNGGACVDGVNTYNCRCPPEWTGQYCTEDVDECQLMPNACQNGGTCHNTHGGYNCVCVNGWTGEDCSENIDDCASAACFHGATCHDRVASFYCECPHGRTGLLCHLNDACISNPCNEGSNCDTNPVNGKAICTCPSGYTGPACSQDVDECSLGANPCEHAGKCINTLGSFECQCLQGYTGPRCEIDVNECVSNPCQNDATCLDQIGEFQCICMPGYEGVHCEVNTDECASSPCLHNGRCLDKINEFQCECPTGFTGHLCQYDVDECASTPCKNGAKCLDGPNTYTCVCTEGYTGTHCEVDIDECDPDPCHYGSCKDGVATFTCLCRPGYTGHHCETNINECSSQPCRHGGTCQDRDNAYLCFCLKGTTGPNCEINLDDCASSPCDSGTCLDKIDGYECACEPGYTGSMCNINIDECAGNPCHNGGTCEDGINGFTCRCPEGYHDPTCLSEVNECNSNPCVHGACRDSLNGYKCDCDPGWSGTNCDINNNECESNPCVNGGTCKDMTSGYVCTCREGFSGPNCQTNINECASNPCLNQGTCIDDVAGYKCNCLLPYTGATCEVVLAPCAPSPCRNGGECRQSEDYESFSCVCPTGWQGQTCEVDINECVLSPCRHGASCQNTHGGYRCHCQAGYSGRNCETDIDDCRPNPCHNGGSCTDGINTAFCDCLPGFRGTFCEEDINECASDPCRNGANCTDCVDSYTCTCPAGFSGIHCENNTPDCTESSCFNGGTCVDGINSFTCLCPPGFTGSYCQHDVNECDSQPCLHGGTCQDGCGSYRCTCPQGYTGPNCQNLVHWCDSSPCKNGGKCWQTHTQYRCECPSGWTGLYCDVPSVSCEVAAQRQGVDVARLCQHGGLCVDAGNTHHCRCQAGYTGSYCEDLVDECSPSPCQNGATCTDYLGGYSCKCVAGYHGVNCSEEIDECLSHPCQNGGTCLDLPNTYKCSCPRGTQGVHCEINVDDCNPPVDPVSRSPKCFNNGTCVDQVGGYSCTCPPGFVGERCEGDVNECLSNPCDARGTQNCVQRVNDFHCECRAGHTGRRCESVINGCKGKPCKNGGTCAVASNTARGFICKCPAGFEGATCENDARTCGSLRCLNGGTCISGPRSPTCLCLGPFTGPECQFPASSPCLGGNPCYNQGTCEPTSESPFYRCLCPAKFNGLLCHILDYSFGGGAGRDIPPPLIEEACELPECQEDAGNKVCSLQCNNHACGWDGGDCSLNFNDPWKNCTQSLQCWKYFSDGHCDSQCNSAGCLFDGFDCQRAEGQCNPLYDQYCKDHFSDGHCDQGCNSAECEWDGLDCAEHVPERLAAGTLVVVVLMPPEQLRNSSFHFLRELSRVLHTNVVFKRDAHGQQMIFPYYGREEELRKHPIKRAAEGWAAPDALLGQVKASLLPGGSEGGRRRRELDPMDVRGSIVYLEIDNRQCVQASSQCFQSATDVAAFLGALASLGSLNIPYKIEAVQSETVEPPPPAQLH
T4 sequence (Q61982 40-2318): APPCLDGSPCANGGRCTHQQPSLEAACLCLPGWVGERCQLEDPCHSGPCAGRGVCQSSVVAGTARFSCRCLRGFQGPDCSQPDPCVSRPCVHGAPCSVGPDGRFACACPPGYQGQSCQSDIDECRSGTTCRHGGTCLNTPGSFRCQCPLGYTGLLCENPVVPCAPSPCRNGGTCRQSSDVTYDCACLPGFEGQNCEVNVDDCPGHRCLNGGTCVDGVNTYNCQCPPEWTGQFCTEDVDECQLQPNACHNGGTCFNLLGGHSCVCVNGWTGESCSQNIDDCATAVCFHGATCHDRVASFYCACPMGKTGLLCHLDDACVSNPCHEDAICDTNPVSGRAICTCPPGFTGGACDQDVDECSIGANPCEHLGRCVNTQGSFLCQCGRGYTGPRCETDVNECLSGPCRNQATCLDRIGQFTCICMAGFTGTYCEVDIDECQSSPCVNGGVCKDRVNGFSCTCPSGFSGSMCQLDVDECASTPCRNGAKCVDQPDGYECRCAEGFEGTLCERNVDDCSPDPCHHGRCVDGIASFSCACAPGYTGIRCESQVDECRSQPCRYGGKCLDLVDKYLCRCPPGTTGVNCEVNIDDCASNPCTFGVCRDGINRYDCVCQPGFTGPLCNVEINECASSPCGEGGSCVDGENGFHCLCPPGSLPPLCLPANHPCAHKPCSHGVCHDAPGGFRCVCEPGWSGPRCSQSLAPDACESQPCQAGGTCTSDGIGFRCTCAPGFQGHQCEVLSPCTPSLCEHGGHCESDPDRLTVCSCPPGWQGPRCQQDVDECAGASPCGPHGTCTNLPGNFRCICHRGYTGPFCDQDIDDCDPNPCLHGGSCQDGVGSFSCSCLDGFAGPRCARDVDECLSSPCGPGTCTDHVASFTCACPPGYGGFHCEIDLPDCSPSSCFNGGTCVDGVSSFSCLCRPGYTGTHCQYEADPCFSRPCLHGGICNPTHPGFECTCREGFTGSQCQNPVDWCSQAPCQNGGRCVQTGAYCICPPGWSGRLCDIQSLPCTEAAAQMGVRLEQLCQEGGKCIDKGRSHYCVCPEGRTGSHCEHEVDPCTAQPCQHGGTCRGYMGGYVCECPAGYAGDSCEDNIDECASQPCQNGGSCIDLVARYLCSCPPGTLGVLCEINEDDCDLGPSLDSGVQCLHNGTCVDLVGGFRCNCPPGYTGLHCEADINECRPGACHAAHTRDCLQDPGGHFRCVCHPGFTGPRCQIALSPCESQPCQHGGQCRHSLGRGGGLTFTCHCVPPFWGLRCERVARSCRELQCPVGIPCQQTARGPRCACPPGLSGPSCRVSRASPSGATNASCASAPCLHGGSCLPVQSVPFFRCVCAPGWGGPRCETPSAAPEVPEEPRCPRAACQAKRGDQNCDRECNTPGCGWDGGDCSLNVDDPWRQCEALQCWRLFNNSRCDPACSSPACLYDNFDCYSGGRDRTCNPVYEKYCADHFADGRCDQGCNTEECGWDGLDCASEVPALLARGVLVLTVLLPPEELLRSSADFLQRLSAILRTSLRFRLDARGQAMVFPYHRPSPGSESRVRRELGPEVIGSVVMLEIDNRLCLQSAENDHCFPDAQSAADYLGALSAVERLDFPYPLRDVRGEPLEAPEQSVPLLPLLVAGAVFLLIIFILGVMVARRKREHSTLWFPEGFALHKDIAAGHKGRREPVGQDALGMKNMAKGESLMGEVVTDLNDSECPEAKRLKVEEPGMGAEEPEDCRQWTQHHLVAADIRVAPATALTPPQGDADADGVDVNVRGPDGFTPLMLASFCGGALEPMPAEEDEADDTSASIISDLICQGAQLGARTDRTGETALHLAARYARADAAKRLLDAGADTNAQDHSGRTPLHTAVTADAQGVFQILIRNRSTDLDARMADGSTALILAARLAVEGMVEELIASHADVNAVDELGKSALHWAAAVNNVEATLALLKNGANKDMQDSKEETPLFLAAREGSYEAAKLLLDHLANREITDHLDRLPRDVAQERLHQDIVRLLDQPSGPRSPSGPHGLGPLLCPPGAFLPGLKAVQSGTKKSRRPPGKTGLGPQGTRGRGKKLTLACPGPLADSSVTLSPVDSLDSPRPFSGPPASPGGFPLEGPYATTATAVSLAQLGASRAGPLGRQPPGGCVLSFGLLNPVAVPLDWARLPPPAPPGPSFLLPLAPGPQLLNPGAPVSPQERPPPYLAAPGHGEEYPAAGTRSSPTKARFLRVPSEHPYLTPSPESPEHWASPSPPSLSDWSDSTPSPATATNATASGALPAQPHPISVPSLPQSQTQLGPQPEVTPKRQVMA

- Kd [1]: 4.18 nM
- koff [1]: 0.000396 s⁻¹
- kon [1]: 94700 M⁻¹ s⁻¹
- IC50; % inhibition of hJag2-mFc-stimulated RBP-Jk luciferase reporter activity in MDA-MB-468 cells with endogenous human Notch3 [2]: 0.53 ug/ml (unit taken from the x axis 'log (ug/ml)'; the table prints none)
- LogIC50; same reporter assay [2]: -0.276 log (ug/ml)
- kon [3]: 272000 M⁻¹ s⁻¹
- binding result [4]: no binding
- koff [5]: 0.000258 s⁻¹
- Kd [6]: 2.72 nM
- Kd [7]: 2.55 nM
- koff [7]: 0.000299 s⁻¹
- kon [7]: 177000 M⁻¹ s⁻¹
- binding result [8]: binds
- koff [9]: 0.000313 s⁻¹
- kon [9]: 104000 M⁻¹ s⁻¹
- binding result [10]: no binding
- Kd [11]: 806 nM
- Kd [12]: 0.948 nM
B1: 28042 antibody (antibody, human IgG1, kappa, V domains shown)
VH: EVQLLESGGGLVQPGGSLRLSCAASGFTFSDYMMSWVRQAPGKGLEWVSWIRSSGGTTLYADSVKGRFTISRDNSKNTLYLQMNSLRAEDTATYYCARVGGGTTGYAFDIWGQGTMVTVSS
VL: DIQMTQSPSSLSASVGDRVTITCRASQSISNYLNWYQQKPGKAPKLLIYGASSLQSGVPSRVSGTGSGTDFTLTISSLQPEDFATYYCQQSYSPSFTFGPGTKVDFER
